Source: PMC3534962

Legend:
[1] = co-immunoprecipitation with Flag-PFK1; details: glycan gained; control: WT Flag-PFK1 without OGT overexpression
[2] = native gel electrophoresis of immunopurified Flag-PFK1; details: glycan gained; control: Flag-PFK1 from untreated 293T cells
colorimetric NADPH assay = details: glycan lost; control: WT PFK1 H1299 knock-in cells
[3] = GSH level under hypoxic conditions; details: glycan lost; control: WT PFK1 H1299 knock-in cells, hypoxia
[4] = [1,2-13C]-glucose labelling, LC-MS; details: glycan lost; control: WT PFK1 H1299 knock-in cells
[5] = NADPH level under hypoxic conditions; details: glycan lost; control: WT PFK1 H1299 knock-in cells, hypoxia
[6] = monochlorobimane fluorimetric GSH assay; details: glycan lost; control: WT PFK1 H1299 knock-in cells
[7] = 14CO2 release from [1-14C]- vs [6-14C]-glucose; details: glycan lost; control: WT PFK1 H1299 knock-in cells
[8] = co-immunoprecipitation after OGT overexpression; details: glycan lost; control: WT Flag-PFK1
[9] = proliferation with and without OGT overexpression; details: glycan lost; control: WT PFK1 H1299 knock-in cells, hypoxia
[10] = glycolytic rate with and without OGT overexpression; details: glycan lost; control: WT PFK1 H1299 knock-in cells
[11] = lactate production with and without OGT overexpression; details: glycan lost; control: WT PFK1 H1299 knock-in cells
[12] = untargeted flow-injection mass spectrometry metabolite profiling; details: glycan lost; control: WT PFK1 H1299 knock-in cells

| Protein | oligomerisation [1] | oligomerisation [2] | other: OGT-induced increase in NADPH, fold_change (colorimetric NADPH assay) | other: cellular GSH level [3] | other: OGT-induced increase in PPP flux, fold_change [4] | other: cellular NADPH level [5] | other: OGT-induced increase in GSH, fold_change [6] | other: OGT-induced increase in PPP flux [7] | other: OGT-induced loss of subunit co-immunoprecipitation [8] | other: OGT-induced increase in proliferation [9] | other: OGT-induced decrease in glycolytic rate, other: percent decrease [10] | other: OGT-induced decrease in lactate production, other: percent decrease [11] | other: steady-state metabolite concentrations [12] |
| --- | --- | --- | --- | --- | --- | --- | --- | --- | --- | --- | --- | --- | --- |
| phosphofructokinase 1 (PFK1): OGT overexpression (protein) parent chain: MAAVDLEKLRASGAGKAIGVLTSGGDAQGMNAAVRAVTRMGIYVGAKVFLIYEGYEGLVEGGENIKQANWLSVSNIIQLGGTIIGSARCKAFTTREGRRAAAYNLVQHGITNLCVIGGDGSLTGANIFRSEWGSLLEELVAEGKISETTARTYSHLNIAGLVGSIDNDFCGTDMTIGTDSALHRIMEVIDAITTTAQSHQRTFVLEVMGRHCGYLALVSALASGADWLFIPEAPPEDGWENFMCERLGETRSRGSRLNIIIIAEGAIDRNGKPISSSYVKDLVVQRLGFDTRVTVLGHVQRGGTPSAFDRILSSKMGMEAVMALLEATPDTPACVVTLSGNQSVRLPLMECVQMTKEVQKAMDDKRFDEATQLRGGSFENNWNIYKLLAHQKPPKEKSNFSLAILNVGAPAAGMNAAVRSAVRTGISHGHTVYVVHDGFEGLAKGQVQEVGWHDVAGWLGRGGSMLGTKRTLPKGQLESIVENIRIYGIHALLVVGGFEAYEGVLQLVEARGRYEELCIVMCVIPATISNNVPGTDFSLGSDTAVNAAMESCDRIKQSASGTKRRVFIVETMGGYCGYLATVTGIAVGADAAYVFEDPFNIHDLKVNVEHMTEKMKTDIQRGLVLRNEKCHDYYTTEFLYNLYSSEGKGVFDCRTNVLGHLQQGGAPTPFDRNYGTKLGVKAMLWLSEKLREVYRKGRVFANAPDSACVIGLKKKAVAFSPVTELKKDTDFEHRMPREQWWLSLRLMLKMLAQYRISMAAYVSGELEHVTRRTLSMDKGF | decreases | decreases | – | – | – | – | – | – | – | – | – | – | – |
| phosphofructokinase 1 (PFK1): PUGNAc (protein) parent chain: MAAVDLEKLRASGAGKAIGVLTSGGDAQGMNAAVRAVTRMGIYVGAKVFLIYEGYEGLVEGGENIKQANWLSVSNIIQLGGTIIGSARCKAFTTREGRRAAAYNLVQHGITNLCVIGGDGSLTGANIFRSEWGSLLEELVAEGKISETTARTYSHLNIAGLVGSIDNDFCGTDMTIGTDSALHRIMEVIDAITTTAQSHQRTFVLEVMGRHCGYLALVSALASGADWLFIPEAPPEDGWENFMCERLGETRSRGSRLNIIIIAEGAIDRNGKPISSSYVKDLVVQRLGFDTRVTVLGHVQRGGTPSAFDRILSSKMGMEAVMALLEATPDTPACVVTLSGNQSVRLPLMECVQMTKEVQKAMDDKRFDEATQLRGGSFENNWNIYKLLAHQKPPKEKSNFSLAILNVGAPAAGMNAAVRSAVRTGISHGHTVYVVHDGFEGLAKGQVQEVGWHDVAGWLGRGGSMLGTKRTLPKGQLESIVENIRIYGIHALLVVGGFEAYEGVLQLVEARGRYEELCIVMCVIPATISNNVPGTDFSLGSDTAVNAAMESCDRIKQSASGTKRRVFIVETMGGYCGYLATVTGIAVGADAAYVFEDPFNIHDLKVNVEHMTEKMKTDIQRGLVLRNEKCHDYYTTEFLYNLYSSEGKGVFDCRTNVLGHLQQGGAPTPFDRNYGTKLGVKAMLWLSEKLREVYRKGRVFANAPDSACVIGLKKKAVAFSPVTELKKDTDFEHRMPREQWWLSLRLMLKMLAQYRISMAAYVSGELEHVTRRTLSMDKGF | – | decreases | – | – | – | – | – | – | – | – | – | – | – |
| phosphofructokinase 1 (PFK1): S529A (protein) parent chain: MAAVDLEKLRASGAGKAIGVLTSGGDAQGMNAAVRAVTRMGIYVGAKVFLIYEGYEGLVEGGENIKQANWLSVSNIIQLGGTIIGSARCKAFTTREGRRAAAYNLVQHGITNLCVIGGDGSLTGANIFRSEWGSLLEELVAEGKISETTARTYSHLNIAGLVGSIDNDFCGTDMTIGTDSALHRIMEVIDAITTTAQSHQRTFVLEVMGRHCGYLALVSALASGADWLFIPEAPPEDGWENFMCERLGETRSRGSRLNIIIIAEGAIDRNGKPISSSYVKDLVVQRLGFDTRVTVLGHVQRGGTPSAFDRILSSKMGMEAVMALLEATPDTPACVVTLSGNQSVRLPLMECVQMTKEVQKAMDDKRFDEATQLRGGSFENNWNIYKLLAHQKPPKEKSNFSLAILNVGAPAAGMNAAVRSAVRTGISHGHTVYVVHDGFEGLAKGQVQEVGWHDVAGWLGRGGSMLGTKRTLPKGQLESIVENIRIYGIHALLVVGGFEAYEGVLQLVEARGRYEELCIVMCVIPATISNNVPGTDFSLGSDTAVNAAMESCDRIKQSASGTKRRVFIVETMGGYCGYLATVTGIAVGADAAYVFEDPFNIHDLKVNVEHMTEKMKTDIQRGLVLRNEKCHDYYTTEFLYNLYSSEGKGVFDCRTNVLGHLQQGGAPTPFDRNYGTKLGVKAMLWLSEKLREVYRKGRVFANAPDSACVIGLKKKAVAFSPVTELKKDTDFEHRMPREQWWLSLRLMLKMLAQYRISMAAYVSGELEHVTRRTLSMDKGF | – | – | abolishes | decreases | abolishes | decreases | decreases | abolishes | abolishes | abolishes | abolishes | abolishes | decreases |
